Test results taken from patent US20240066131A1 (Protagonist Therapeutics, Inc., priority 2020, published 2024).
Starred links: 1 amine or outer side, 2 acyl side, 3 side chain; linkers in the order of their positions; H or OH if unused. Non-standard residues stand in square brackets, D forms with d. Residues, ends and D or L forms follow the SMILES beside them. Groups on a side chain read outwards from the residue. No end group written: not given here. *: point of attachment. N_Butyl_Phe = CCCCN([C@@H](Cc1ccccc1)C(=O)[*:2])[*:1]; Ala(1H-tetrazol-5-yl) = N[C@@H](Cc1nnn[nH]1)C(=O)O; Gly(N-CH2CH2-imidazol-4-yl) = O=C(O)CNCCc1c[nH]cn1; C18 diacid = O=C(O)CCCCCCCCCCCCCCCCC(=O)*; X8 = O=C([C@H](CCc1nn[nH]n1)N[*:1])[*:2]; Dip = N[C@H](C(=O)O)C(c1ccccc1)c1ccccc1; γGlu = O=C(O)[C@H](CCC(=O)[*:2])N[*:1]; His(τ-Me) = Cn1cnc(C[C@H](N)C(=O)O)c1; Palmitoyl = CCCCCCCCCCCCCCCC(=O)*; Myristoyl = CCCCCCCCCCCCCC(=O)*; β3hF = N[C@H](CC(=O)O)Cc1ccccc1; NMeK = CN[C@@H](CCCCN)C(=O)O; Isovaleryl = CC(C)CC(=O)*; AEEA = NCCOCCOCC(=O)O; Ahx = NCCCCCC(=O)O

T1: ferroportin (Homo sapiens, UniProt Q9NP59)
T1 sequence (Q9NP59 1-571): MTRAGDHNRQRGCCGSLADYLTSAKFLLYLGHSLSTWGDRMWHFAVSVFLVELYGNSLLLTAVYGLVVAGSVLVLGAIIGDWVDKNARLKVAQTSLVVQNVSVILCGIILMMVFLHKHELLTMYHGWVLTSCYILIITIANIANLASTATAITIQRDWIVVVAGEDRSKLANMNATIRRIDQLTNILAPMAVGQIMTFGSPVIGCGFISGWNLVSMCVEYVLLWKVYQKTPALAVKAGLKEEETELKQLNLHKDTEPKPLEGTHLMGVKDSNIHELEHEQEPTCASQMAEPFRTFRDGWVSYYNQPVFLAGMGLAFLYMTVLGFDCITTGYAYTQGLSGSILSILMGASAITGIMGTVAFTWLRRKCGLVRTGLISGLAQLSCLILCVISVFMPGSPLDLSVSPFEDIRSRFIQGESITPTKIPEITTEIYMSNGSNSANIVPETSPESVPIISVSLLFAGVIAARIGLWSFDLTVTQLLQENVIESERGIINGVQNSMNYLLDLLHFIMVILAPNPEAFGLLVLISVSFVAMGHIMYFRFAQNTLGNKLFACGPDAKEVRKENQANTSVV

T2: human ferroportin (SLC40A1) fused in frame with GFP, stably expressed in HEK293 cells (human, UniProt Q9NP59 1-571)
T2 sequence (looked up): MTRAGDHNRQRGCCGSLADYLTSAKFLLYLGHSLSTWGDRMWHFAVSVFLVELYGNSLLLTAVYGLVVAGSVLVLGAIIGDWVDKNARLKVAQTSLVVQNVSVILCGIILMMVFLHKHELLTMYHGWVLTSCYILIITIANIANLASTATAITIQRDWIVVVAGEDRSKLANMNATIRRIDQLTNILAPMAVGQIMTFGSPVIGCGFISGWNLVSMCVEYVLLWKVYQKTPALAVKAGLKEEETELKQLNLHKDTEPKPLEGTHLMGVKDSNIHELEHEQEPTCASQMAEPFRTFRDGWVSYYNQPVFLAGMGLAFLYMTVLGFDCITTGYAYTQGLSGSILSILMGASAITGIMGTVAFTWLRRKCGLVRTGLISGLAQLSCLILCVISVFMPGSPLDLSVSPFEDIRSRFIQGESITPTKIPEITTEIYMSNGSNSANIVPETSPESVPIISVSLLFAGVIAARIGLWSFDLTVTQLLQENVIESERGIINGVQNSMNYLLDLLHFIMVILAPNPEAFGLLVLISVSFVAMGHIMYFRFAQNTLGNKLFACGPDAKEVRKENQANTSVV


Legend:
ferroportin = biological target: T1, ferroportin; experiment: FPN activity assay: internalization/degradation of ferroportin-GFP in stably transfected HEK293 cells (loss of GFP fluorescence); format: cell-based; conditions: Table 6A; read-out: FPN EC50
Experimental: Following internalization, the ferroporin protein is degraded.
A retro inverse peptide is a peptide with a reversed sequence in all D amino acids. An example is that Hy-Glu-Thr-His-NH2 becomes Hy-DHis-DThr-DGlu-NH2. The EC50 of these reference compounds for ferroportin internalization/degradation was determined according to the FPN activity assay described above. These peptides served as control standards.

[1] = biological target: T2, human ferroportin (SLC40A1) fused in …; experiment: cell-based or functional assay

Molecule | DC50 (ferroportin) | FPN IC50 [1]
CCCCCCCCCCCCCCCC(=O)NCCCCCC(=O)NCCCC[C@H](NC(=O)[C@@H](NC(=O)[C@@H](NC(=O)[C@@H]1CCCN1C(=O)[C@@H](NC(=O)[C@H](Cc1c[nH]cn1)NC(=O)[C@@H](NC(=O)[C@H](Cc1nn[nH]n1)NC(=O)CC(C)C)[C@@H](C)O)C(c1ccccc1)c1ccccc1)[C@@H](C)CC)[C@@H](C)CC)C(=O)N[C@H](CC(N)=O)Cc1ccccc1 [compound 113] (Isovaleryl-[Ala(1H-tetrazol-5-yl)]TH[Dip]PIIK([Ahx-Palmitoyl])[β3hF]-NH2) | 86.8 nM | –
Isovaleryl-ETHFPAIK([γGlu-C10 acid])FEPRSKGAK-NH2 [Isovaleric Acid-E-T-H-F-P-A-I-[Lys(IsoGlu_C10_acid)]-F-E-P-R-S-K-G-A-K-NH2] | – | 3310 nM
Isovaleryl-ETHFPAIK([Ahx-Myristoyl])FEPRSKG[dA]-NH2 (SMILES CCCCCCCCCCCCCC(=O)NCCCCCC(=O)NCCCC[C@H](NC(=O)[C@@H](NC(=O)[C@H](C)NC(=O)[C@@H]1CCCN1C(=O)[C@H](Cc1ccccc1)NC(=O)[C@H](Cc1c[nH]cn1)NC(=O)[C@@H](NC(=O)[C@H](CCC(=O)O)NC(=O)CC(C)C)[C@@H](C)O)[C@@H](C)CC)C(=O)N[C@@H](Cc1ccccc1)C(=O)N[C@@H](CCC(=O)O)C(=O)N1CCC[C@H]1C(=O)N[C@@H](CCCNC(=N)N)C(=O)N[C@@H](CO)C(=O)N[C@@H](CCCCN)C(=O)NCC(=O)N[C@H](C)C(N)=O) [Isovaleric Acid-E-T-H-F-P-A-I-[Lys(Ahx_C14_acid)]-F-E-P-R-S-K-G-[(D)Ala]-NH2] | – | 1070 nM
Isovaleryl-ETHFPAIK([γGlu-Myristoyl])FEPRSKGA[dK]-NH2 [Isovaleric Acid-E-T-H-F-P-A-I-[Lys(IsoGlu_C14_acid)]-F-E-P-R-S-K-G-A-[(D)Lys]-NH2] | – | 718 nM
Cyclohexanoic_Acid-LTH[Dip]PK([Ahx-Palmitoyl])[N_Butyl_Phe] [Cyclohexanoic_Acid-L-T-H-[Dpa]-P-[Lys(Ahx_Palm)]-N_Butyl_Phe] | – | 3380 nM
Isovaleryl-LTH[Dip]PK([AEEA-AEEA-γGlu-C18 diacid])[N_Ethyl_Nap] [Isovaleric Acid-L-T-H-[Dpa]-P-[Lys(1PEG2_1PEG2_IsoGlu_C18_Diacid)]-N_Ethyl_Nap] | – | 1440 nM
Isovaleryl-ETHFPAIK([γGlu-Myristoyl])FEPRSKGAK-NH2 [Isovaleric Acid-E-T-H-F-P-A-I-[Lys(IsoGlu_C14_acid)]-F-E-P-R-S-K-G-A-K-NH2] | – | 822 nM
Isovaleryl-ETHFPAIK([Ahx-Myristoyl])FEPR[dS]-NH2 (SMILES CCCCCCCCCCCCCC(=O)NCCCCCC(=O)NCCCC[C@H](NC(=O)[C@@H](NC(=O)[C@H](C)NC(=O)[C@@H]1CCCN1C(=O)[C@H](Cc1ccccc1)NC(=O)[C@H](Cc1c[nH]cn1)NC(=O)[C@@H](NC(=O)[C@H](CCC(=O)O)NC(=O)CC(C)C)[C@@H](C)O)[C@@H](C)CC)C(=O)N[C@@H](Cc1ccccc1)C(=O)N[C@@H](CCC(=O)O)C(=O)N1CCC[C@H]1C(=O)N[C@@H](CCCNC(=N)N)C(=O)N[C@H](CO)C(N)=O) [Isovaleric Acid-E-T-H-F-P-A-I-[Lys(Ahx_C14_acid)]-F-E-P-R-[(D)Ser]-NH2] | – | 1160 nM
Isovaleryl-LTH[Dip]P[NMeK]([Ahx-Palmitoyl])[N_Butyl_Phe] [Isovaleric Acid-L-T-H-[Dpa]-P-NMe[Lys(Ahx_Palm)]-N_Butyl_Phe] | – | 62.6 nM

Second part, the molecule after the results:

DC50 (ferroportin) | FPN IC50 [1] | Molecule
101 nM | – | CCCCCCCCCCCCCCCC(=O)NCCCCCC(=O)NCCCC[C@H](NC(=O)[C@@H](NC(=O)[C@@H](NC(=O)[C@@H]1CCCN1C(=O)[C@@H](NC(=O)[C@H](Cc1cn(C)cn1)NC(=O)[C@@H](NC(=O)[C@H](CCc1nn[nH]n1)NC(=O)CC(C)C)[C@@H](C)O)C(c1ccccc1)c1ccccc1)[C@@H](C)CC)[C@@H](C)CC)C(=O)N[C@H](CC(N)=O)Cc1ccccc1 [compound 117] (Isovaleryl-[X8]T[His(τ-Me)][Dip]PIIK([Ahx-Palmitoyl])[β3hF]-NH2)
> 3000 nM | – | CCCCCCCCCCCCCCCC(=O)NCCCCCC(=O)NCCCC[C@H](NC(=O)[C@@H](NC(=O)[C@H](C)NC(=O)[C@@H]1CCCN1C(=O)[C@@H](NC(=O)CN(CCc1c[nH]cn1)C(=O)[C@@H](NC(=O)[C@H](CCC(=O)O)NC(=O)CC(C)C)[C@@H](C)O)C(c1ccccc1)c1ccccc1)[C@@H](C)CC)C(=O)N[C@H](CC(N)=O)Cc1ccccc1 [compound 88] (Isovaleryl-ET[Gly(N-CH2CH2-imidazol-4-yl)][Dip]PAIK([Ahx-Palmitoyl])[β3hF]-NH2)
63.5 nM | – | CCCCCCCCCCCCCCCC(=O)NCCCCCC(=O)NCCOCCOCC(=O)NCCOCCOCC(=O)NCCCC[C@H](NC(=O)[C@@H](NC(=O)[C@H](C)NC(=O)[C@@H]1CCCN1C(=O)[C@@H](NC(=O)[C@H](Cc1c[nH]cn1)NC(=O)[C@@H](NC(=O)[C@H](CCC(=O)O)NC(=O)CC(C)C)[C@@H](C)O)C(c1ccccc1)c1ccccc1)[C@@H](C)CC)C(=O)N[C@H](CC(N)=O)Cc1ccccc1 [compound 101] (Isovaleryl-ETH[Dip]PAIK([AEEA-AEEA-Ahx-Palmitoyl])[β3hF]-NH2)
– | 71 nM | Isovaleryl-[meL]TH[Dip]P[NMeK]([Ahx-Palmitoyl])-N_Butyl_Phe [Isovaleric Acid-meL-T-H-[Dpa]-P-NMe[Lys(Ahx_Palm)]-N_Butyl_Phe]
– | 1040 nM | Isovaleryl-LTH[Dip]P[N_Butyl_Phe] [Isovaleric Acid-L-T-H-[Dpa]-P-N_Butyl_Phe]
– | 150 nM | Isovaleryl-K(GalNH)TH[Dip]PAIK([Ahx-Palmitoyl])[β3hF]-NH2 [Isovaleric Acid-[Lys(GalNH-T-H-[Dpa]-P-A-I-[Lys(Ahx_Palm)]-[bhPhe]-NH2]
